Laboratory results as given in patent publication US20160187355A1 (AUGUSTA UNIVERSITY RESEARCH INSTITUTE, published 2016).
One block for each molecule: values may come before it.

How the values were obtained:
LRP4N-Myc (rat) [1] = target: LRP4N-Myc (rat) (UniProt Q9QYP1); assay: solid phase binding of MuSK-AP to coated LRP4, Scatchard plot
LRP4-Myc = target: T1, LRP4-Myc (UniProt Q9QYP1 21-1905); assay: solid phase binding: purified LRP4-Myc (name as in the legend) coated on plate, bound AP activity with pNPP
T1 construct: whole, on cells; also called Myc-tagged full length LRP4; not shown: Myc tag of pcDNA3.1-MycHis; His tag of pcDNA3.1-MycHis
Protocol: FIG. 6A-G. Direct interaction between LRP4 and MuSK. […] Flag-MuSKect immobilized on beads were incubated with condition media of cells expressing the extracellular domains of LRP4 (LRP4N-Myc) or the empty vector (control) in the presence or absence of neuronal agrin. Precipitated LRP4 was analyzed by immunoblot with anti-Myc antibody. […] FIG. 6B is a quantitative analysis of LRP4N-Myc and Flag-MuSK. Data shown were mean±SEM, n=3; *, p <0.05 in comparison with the no-agrin group. […] Purified LRP4-Myc was coated on Maxi-Sorp Immuno Plates, which were incubated with MuSK-AP. Bound AP was measured with pNPP as substrate. Data shown were mean±SEM. n=4. FIG. 6D is a Scatchard plot of data in FIG. 6C. Y axis represents the ratio of bound to free MuSK-AP whereas X axis represents the concentration of bound MuSK-AP. […] Experiments were done as in FIG. 6A except condition medium of cells expressing the extracellular domain of LRP6 was used. […] HEK293 cells were transfected with LRP4 and/or Flag-MuSK. Lysates were incubated with anti-Flag antibody, and resulting immunocomplex was analyzed for LRP4 and Flag. Lysates were also probed to indicate equal amounts of indicated proteins. […]
Solid phase binding assay. […] Coated wells were incubated with purified AP fusion proteins and the AP activity was measured using pNPP as substrate.

LRP4N-Myc (rat) [2] = target: LRP4N-Myc (rat) (UniProt Q9QYP1); assay: solid phase binding of nAgrin-AP to coated LRP4, Scatchard plot
LRP4N-Myc (rat) [3] = target: LRP4N-Myc (rat) (UniProt Q9QYP1); assay: solid phase binding: purified LRP4 (legend: LRP4-Myc; paragraph 111: LRP4N-Myc) coated on plate, bound AP activity with pNPP
[4] = target: T2, full length LRP4 (pcDNA-LRP4) (UniProt Q9QYP1 21-1905, limits assumed); assay: intact cell binding on transfected C2C12 myoblasts, BCIP/NBT staining quantified
T2 construct: whole, on cells; Expressed in transfected C2C12 myoblasts or HEK293 cells; also called exogenous LRP4
Protocol: FIG. 4A-G. Expression of LRP4 enables binding activity for neuronal agrin and MuSK signaling. […] C2C12 myoblasts were transfected by empty vector (control), LRP4 and/or Flag-MuSK. 36 hr after transfection, myoblasts were incubated with AP alone, mAgrin-AP or nAgrin-AP for 90 min at room temperature. Endogenous AP was inactivated by heating and bound AP was visualized in cells by staining with BCIP/NBT. FIG. 4B is a quantification of data in FIG. 4A. Data shown were mean±SEM. n=6; *, P<0.05 in comparison with mAgrin-AP of the same group or nAgrin-AP in the control group. FIG. 4C and FIG. 4D show nAgrin-AP bound to HEK293 cells expressing LRP4, but not those expressing LRP5. HEK293 cells were transfected without (control) or with LRP4-Myc (FIG. 4C) or LRP5-Myc (FIG. 4D). 36 hr after transfection, transfected cells were incubated with nAgrin-AP or mAgrin-AP. In some experiments, control cells were incubated with nAgrin-AP. After heat inactivation of endogenous AP, lysates were assayed for transfected AP using pNPP as substrate. […] In FIG. 4E, lysates were incubated with anti-Flag antibody, and resulting immunocomplex was analyzed with anti-phosphotyrosine antibody 4G10. […] FIG. 4G is a quantitative analysis of data in FIG. 4E and FIG. 4F. MuSK and Abl phosphorylation was quantified by using the ImageJ software. […]

Sequence of LRP4N-Myc (rat) (Q9QYP1 21-1723): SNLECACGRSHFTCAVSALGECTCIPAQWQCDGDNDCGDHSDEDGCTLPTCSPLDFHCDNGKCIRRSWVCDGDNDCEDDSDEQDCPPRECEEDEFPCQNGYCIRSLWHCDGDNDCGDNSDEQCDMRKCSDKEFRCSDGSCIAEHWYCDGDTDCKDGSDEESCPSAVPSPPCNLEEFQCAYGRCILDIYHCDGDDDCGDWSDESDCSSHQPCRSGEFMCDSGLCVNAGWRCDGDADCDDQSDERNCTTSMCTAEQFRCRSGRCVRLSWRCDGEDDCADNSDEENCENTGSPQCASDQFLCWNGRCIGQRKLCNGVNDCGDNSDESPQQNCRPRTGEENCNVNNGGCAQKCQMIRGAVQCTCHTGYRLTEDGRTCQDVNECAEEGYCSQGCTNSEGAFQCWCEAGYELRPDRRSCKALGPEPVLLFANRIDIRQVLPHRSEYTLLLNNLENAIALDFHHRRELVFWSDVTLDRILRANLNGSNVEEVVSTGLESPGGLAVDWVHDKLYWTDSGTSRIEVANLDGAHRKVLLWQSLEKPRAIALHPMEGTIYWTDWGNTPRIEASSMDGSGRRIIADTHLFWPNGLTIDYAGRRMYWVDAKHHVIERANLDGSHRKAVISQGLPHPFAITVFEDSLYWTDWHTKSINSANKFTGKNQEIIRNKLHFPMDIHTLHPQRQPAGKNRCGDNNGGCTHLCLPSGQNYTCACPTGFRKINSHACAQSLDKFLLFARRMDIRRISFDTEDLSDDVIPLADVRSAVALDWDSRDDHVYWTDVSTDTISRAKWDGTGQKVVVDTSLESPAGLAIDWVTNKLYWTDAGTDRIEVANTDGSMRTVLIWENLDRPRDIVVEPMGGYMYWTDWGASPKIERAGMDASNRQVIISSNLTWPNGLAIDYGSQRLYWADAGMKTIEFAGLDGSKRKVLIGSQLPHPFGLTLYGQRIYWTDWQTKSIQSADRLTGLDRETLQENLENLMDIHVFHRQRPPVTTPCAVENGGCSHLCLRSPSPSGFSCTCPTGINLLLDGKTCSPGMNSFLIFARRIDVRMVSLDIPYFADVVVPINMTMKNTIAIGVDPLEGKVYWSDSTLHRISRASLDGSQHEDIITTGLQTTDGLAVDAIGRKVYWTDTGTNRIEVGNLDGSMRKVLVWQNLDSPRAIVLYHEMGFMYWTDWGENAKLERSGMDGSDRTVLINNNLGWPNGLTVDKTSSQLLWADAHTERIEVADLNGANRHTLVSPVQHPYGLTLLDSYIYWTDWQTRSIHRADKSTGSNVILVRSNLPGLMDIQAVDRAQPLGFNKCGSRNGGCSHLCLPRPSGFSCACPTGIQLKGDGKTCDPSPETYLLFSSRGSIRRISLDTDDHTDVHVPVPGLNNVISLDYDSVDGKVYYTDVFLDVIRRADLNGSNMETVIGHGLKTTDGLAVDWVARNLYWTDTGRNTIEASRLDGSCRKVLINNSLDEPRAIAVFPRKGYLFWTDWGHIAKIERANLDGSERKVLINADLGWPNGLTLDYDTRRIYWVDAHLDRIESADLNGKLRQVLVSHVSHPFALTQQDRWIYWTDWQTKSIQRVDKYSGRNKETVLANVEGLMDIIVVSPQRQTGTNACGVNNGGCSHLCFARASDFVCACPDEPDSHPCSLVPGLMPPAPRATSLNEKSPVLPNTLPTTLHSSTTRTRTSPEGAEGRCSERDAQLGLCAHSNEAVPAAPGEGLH
T1 sequence (Q9QYP1 21-1905): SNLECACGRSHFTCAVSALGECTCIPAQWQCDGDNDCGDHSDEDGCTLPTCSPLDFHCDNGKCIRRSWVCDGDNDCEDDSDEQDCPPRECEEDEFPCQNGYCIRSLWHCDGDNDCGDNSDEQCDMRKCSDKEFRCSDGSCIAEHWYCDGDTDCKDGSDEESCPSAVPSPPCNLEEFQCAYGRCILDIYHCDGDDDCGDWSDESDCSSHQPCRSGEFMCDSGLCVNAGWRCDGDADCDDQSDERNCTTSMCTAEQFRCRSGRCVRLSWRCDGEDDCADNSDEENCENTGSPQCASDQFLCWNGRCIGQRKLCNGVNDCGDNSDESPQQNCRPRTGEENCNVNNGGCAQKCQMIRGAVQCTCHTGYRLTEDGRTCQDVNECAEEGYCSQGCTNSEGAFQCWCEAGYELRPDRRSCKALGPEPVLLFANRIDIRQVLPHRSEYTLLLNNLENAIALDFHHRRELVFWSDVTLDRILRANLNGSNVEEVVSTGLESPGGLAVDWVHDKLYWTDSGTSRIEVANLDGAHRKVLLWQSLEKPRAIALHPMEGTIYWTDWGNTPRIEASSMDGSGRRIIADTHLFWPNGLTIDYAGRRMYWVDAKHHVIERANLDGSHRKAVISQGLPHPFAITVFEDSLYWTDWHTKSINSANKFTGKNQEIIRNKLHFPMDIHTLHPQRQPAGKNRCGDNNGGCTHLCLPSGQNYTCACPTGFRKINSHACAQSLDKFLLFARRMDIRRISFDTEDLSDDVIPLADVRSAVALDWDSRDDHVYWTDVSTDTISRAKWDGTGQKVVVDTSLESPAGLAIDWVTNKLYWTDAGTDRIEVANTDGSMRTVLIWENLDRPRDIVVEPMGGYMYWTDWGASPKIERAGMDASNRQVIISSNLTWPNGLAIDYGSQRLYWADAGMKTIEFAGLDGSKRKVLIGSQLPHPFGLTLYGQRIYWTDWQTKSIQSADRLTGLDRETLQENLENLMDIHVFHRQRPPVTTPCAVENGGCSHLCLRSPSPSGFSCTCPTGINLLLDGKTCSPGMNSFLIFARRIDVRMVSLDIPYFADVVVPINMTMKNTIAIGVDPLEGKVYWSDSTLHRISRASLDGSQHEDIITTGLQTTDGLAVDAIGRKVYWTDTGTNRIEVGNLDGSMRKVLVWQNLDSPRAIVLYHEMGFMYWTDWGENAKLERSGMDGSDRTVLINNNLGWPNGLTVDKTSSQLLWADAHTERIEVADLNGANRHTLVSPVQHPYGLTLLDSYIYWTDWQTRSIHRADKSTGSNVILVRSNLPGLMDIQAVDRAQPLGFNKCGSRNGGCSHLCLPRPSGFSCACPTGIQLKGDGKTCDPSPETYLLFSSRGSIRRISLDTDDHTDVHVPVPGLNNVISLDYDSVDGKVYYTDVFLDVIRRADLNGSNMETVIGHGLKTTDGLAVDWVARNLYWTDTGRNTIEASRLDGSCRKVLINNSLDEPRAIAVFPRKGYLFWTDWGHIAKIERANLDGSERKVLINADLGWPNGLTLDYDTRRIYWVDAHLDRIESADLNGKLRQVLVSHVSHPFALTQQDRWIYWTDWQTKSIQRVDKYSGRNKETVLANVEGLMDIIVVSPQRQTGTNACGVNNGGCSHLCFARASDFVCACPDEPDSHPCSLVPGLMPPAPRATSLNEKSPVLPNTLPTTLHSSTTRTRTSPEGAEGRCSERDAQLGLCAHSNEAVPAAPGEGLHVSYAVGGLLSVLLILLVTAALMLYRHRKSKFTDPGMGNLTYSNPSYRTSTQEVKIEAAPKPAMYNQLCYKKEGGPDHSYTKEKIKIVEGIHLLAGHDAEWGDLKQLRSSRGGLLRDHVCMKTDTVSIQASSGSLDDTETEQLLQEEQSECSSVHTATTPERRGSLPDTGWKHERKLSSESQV
T2 sequence (Q9QYP1 21-1905 limits assumed): as the sequence (Q9QYP1 21-1905) above

Kd (LRP4N-Myc (rat) [1]): 450 pM
EC50 (read off the curve) (LRP4-Myc): 300 pM
Molecule: MuSK-AP (from UniProt P05187 23-511) (receptor)

Kd (LRP4N-Myc (rat) [2]): 500 pM
EC50 (read off the curve) (LRP4N-Myc (rat) [3]): 400 pM
Molecule: nAgrin-AP (from UniProt P25304 1145-1940) (ligand)

binding result (LRP4-Myc): no binding (tested: 1000 nM)
B1: AP alone (enzyme, human, UniProt P05187 23-511, looked up)
chain: IIPVEEENPDFWNREAAEALGAAKKLQPAQTAAKNLIIFLGDGMGVSTVTAARILKGQKKDKLGPEIPLAMDRFPYVALSKTYNVDKHVPDSGATATAYLCGVKGNFQTIGLSAAARFNQCNTTRGNEVISVMNRAKKAGKSVGVVTTTRVQHASPAGTYAHTVNRNWYSDADVPASARQEGCQDIATQLISNMDIDVILGGGRKYMFRMGTPDPEYPDDYSQGGTRLDGKNLVQEWLAKRQGARYVWNRTELMQASLDPSVTHLMGLFEPGDMKYEIHRDSTLDPSLMEMTEAALRLLSRNPRGFFLFVEGGRIDHGHHESRAYRALTETIMFDDAIERAGQLTSEEDTLSLVTADHSHVFSFGGYPLRGSSIFGLAPGKARDRKAYTVLLYGNGPGYVLKDGARPDVTESESGSPEYRQQSAVPLDEETHAGEDVAVFARGPQAHLVHGVQEQTFIAHVMAFAACLEPYTACDLAPPAGTTDAAHPG
notes: Control protein; also called control (empty pAPtag-5)
binding result [4]: no binding (tested: 5 nM (not printed on the sheet))
